Consider 2 molecules from publication PMC12820532 (Nucleic Acids Research, 2026).

The assay concerns the target His-REV7 (human, UniProt Q9UI95 1-211). The experiment in a line: pull-down.

Chain of His-REV7 (Q9UI95 whole entry): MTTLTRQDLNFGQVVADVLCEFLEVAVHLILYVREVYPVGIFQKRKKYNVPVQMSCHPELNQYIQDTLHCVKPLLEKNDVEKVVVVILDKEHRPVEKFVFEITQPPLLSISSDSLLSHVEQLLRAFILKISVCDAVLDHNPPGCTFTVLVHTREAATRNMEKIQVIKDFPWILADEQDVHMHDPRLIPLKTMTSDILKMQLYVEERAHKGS

B1: GST-ATRIP 203–307 (WT) (domain or fragment)
chain: RTKLQTSERANKLAAPSVSHVSPRKNPSVVIKPEACSPQFGKTSFPTKESFSANMSLPHPCQTESGYKPLVGREDSKPHSLRGDSIKQEEAQKSFVDSWRQRSNT
For B1, the binding result was “binds”.

B2: GST-ATRIP 203–348 (domain or fragment)
chain: RTKLQTSERANKLAAPSVSHVSPRKNPSVVIKPEACSPQFGKTSFPTKESFSANMSLPHPCQTESGYKPLVGREDSKPHSLRGDSIKQEEAQKSFVDSWRQRSNTQGSILINLLLKQPLIPGSSLSLCHLLSSSSESPAGTPLQPP
Consider B2, for which the binding result was “binds”.
